Results reported in paper PMC6635533.
Several values for one entry are separate records, joined by “and”; a condition that tells them apart may be missing. Equal values may be shown once.

Assays:
[1] = target: RocA_(FLAG) expressed from a single chromosomal copy in GAS M1 strain 854 (strain 854_chF) (Streptococcus pyogenes (group A Streptococcus), serotype M1 strain 854); test: cross-linking; formaldehyde cross-linking with GAS M1 strain 854_chF (native expression level); RocA_(FLAG) affinity purified from the protoplast lysate for detection by anti-FLAG blot
[2] = target: RocA cytoplasmic domain (amino acids 226 to 451) with a C-terminal FLAG tag, expressed in GAS M18 strain H566 (strain CYT_F) (Streptococcus pyogenes (group A Streptococcus), serotype M1 strain 854); test: cross-linking; live GAS M18 strains treated with 1% formaldehyde (10 min, room temperature), quenched with 250 mM glycine; protoplast preparations, SDS-PAGE, anti-FLAG blot
[3] = target: RocAM3 with a C-terminal FLAG tag (amino acids 1 to 416), expressed in GAS M18 strain H566 (strain M3_F) (Streptococcus pyogenes (group A Streptococcus), serotype M3 strain 188); test: as above
[4] = target: RocAM1 with a C-terminal FLAG tag, full length (amino acids 1 to 451), expressed in GAS M18 strain H566 (strain M1_F) (Streptococcus pyogenes (group A Streptococcus), serotype M1 strain 854); test: as above

Work on “RocA_(FLAG) expressed from a single chromosomal copy in GAS M1 strain 854 (strain 854_chF) (natural protein)” yielded a stoichiometry N [1] of 2.

“RocA cytoplasmic domain (amino acids 226 to 451) with a C-terminal FLAG tag, expressed in GAS M18 strain H566 (strain CYT_F) (domain or fragment)” showed a stoichiometry N [2] of 2.

Work on “RocAM3 with a C-terminal FLAG tag (amino acids 1 to 416), expressed in GAS M18 strain H566 (strain M3_F) (natural protein)” yielded a stoichiometry N [3] of 2.

For “RocAM1 with a C-terminal FLAG tag, full length (amino acids 1 to 451), expressed in GAS M18 strain H566 (strain M1_F) (natural protein)”, the stoichiometry N [4] was 2 and 4.
